# Test results reported in the supplement of paper PMC12764529.
# ± gives the half width of the 95% confidence interval.
# Columns and labels:
# [1] = folding stability dG unfold from trypsin proteolysis; higher = more stable
# Method in brief: (§1)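 Unfolding free energy was derived, per protease or combined, against a sequence-predicted unfolded-state K50 and a shared folded-state K50, starting from K50 inferred by Bayesian fitting of sequencing counts. Digestion with trypsin and chymotrypsin was carried out on designed mini-proteins under 80 residues without cysteine in a PA-tagged cDNA display construct. Only designs with AlphaFold2 dimer inter-PAE above 15 were kept.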
# [2] = folding stability dG unfold from chymotrypsin proteolysis; higher = more stable
# Method in brief: as §1
# [3] = folding stability dG unfold (combined trypsin and chymotrypsin); higher = more stable
# Method in brief: as §1
Sequence,folding stability dG unfold [1] [kcal/mol],folding stability dG unfold [2] [kcal/mol],folding stability dG unfold [3] [kcal/mol]
SAGGPPSVWIPIEINFPDSPEQLLEEVENAAQEIADLFGIPVKIEVERNPKKGYATIWIRVDGKTIPISAGG [r13_845_TrROS],1.66 ± 0.041,1.7 ± 0.11,1.71 ± 0.22
SAGGSAGGSGSSLVSETVEEGPGLTTRTLTYRLPGAPGVLLERTVTYDPEGNELATSLTVVPESAGGSAGGS [r12_62_JUSTAS],0.0552 ± 0.052,0.0935 ± 0.076,0.15 ± 0.059
SAGGSAGGTITLPGVTVEITEENGTLTIRVTSPDGRTLTRTITLPAGETVTVTDANGKTVTVRLSAGGSAGG [r6_806_TrROS_Hall],2.8 ± 0.073,3.34 ± 0.059,3.18 ± 0.11
SMPEKVTFPFNIPLEEYSLEEIKEAVRERLEKEGYKVLKPDLFPEQEKLAKEAPPEAELPLLVEALVVPGSA [r9_1163_TrMRF],0.411 ± 0.078,-0.19 ± 0.25,0.0434 ± 0.28
SAGGSKPIRVEIAVPPDVPLEELARRVEEELRELGFEVEVEEVSFLPEEGRVLLRFRDGAVAVIPNSAGGSA [r2_242_TrMRF],1.8 ± 0.022,1.85 ± 0.062,1.86 ± 0.068
SAGGSAMKEGKPAVEVEVTVLIELSAEEIAKLLGKEIKEGDTVLITVKVRVYPDGSVEIEIRVEKLSAGGSA [r15_91_TrROS_Hall],2.87 ± 0.15,3.19 ± 0.17,3.08 ± 0.17
SALPPEVVRKLALDALRALYPDEPFVPVSMEVDPETGEVTVLVARPGPDDSLRLVRRTFRVLDDGRVLGSAG [r14_183_TrMRF],2.8 ± 0.067,3.07 ± 0.071,2.98 ± 0.062
SAGGSAGGSAGGMPIKVEEYELPNGEKILKEISPEGVVKVYKVDPVNGKKEVIEVIPINKSAGGSAGGSAGG [r7_898_JUSTAS],0.446 ± 0.094,1.1 ± 0.073,1.01 ± 0.19
SAGGMSPEELASLSPEERRAVVEEALRERLARERPGAPPDFALEDVPVTVRDPATGTTTTVTVRLEAASAGG [r13_555_JUSTAS],0.384 ± 0.11,0.109 ± 0.14,0.177 ± 0.16
SAGGKKVIEIEITVKPGETITITVPPGARIEIVDLDTGEVREIEIEPGETITLTLPPGSTLLIRIYEPSAGG [r19_78_TrROS_Hall],3.66 ± 0.25,4.04 ± 0.11,4.01 ± 0.23
SAGGVDPSKLTPLSTREVPVDDRRLLVTTYLTPDGKPLYTVTVLDAEGRPLGSELVPPEKVSADGRLESAGG [r13_447_JUSTAS],-0.0975 ± 0.1,0.506 ± 0.11,0.334 ± 0.066
SAGGSAGGSAGSMVSVEVEESELPPPYRLVTEKVSLPGSETVIEVVRDPATGEVLETKVFASSAGGSAGGSA [r18_507_JUSTAS],3.77 ± 0.28,3.33 ± 0.25,3.36 ± 0.59
SAGGVERDPPGKNVYYVEIEIKIEIRDPNNGKPLEIPVPITYPFKSPADALEQMRRQARNLAEKLLNSAGGS [r16_624_TrROS],1.78 ± 0.041,2.18 ± 0.1,2.03 ± 0.13
SAGGSAGGSSMTLTIEPPEEGPPLLVEVDETEEIVTGDGTPVKVTTLKITIGEEEMTLTVTTLSAGGSAGGS [r20_39_JUSTAS],1.71 ± 0.098,2.46 ± 0.057,2.1 ± 0.15
SAGGSAMKLKLTFVADSPEQAEQLAEEYTRLNPELFPGEKDYPLEIEVYVLVAPPLVPPSPEELAGSAGGSA [r15_663_TrMRF],1.23 ± 0.051,2.12 ± 0.27,1.69 ± 0.27
SAGGSAGGSAGGKEYEVIEVEVNMTIEELKKLFPNVVEIKVEKNENGELKVTIIIKKDKSAGGSAGGSAGGS [r10_764_TrROS_Hall],1.92 ± 0.08,2.5 ± 0.11,2.31 ± 0.12
SAGGSAGGGMVKREIKVTVTRLPESDVWLVTVTTKIGDKWEIIPVPVAAPADLSAEELAKEVLESAGGSAGG [r6_21_JUSTAS],1.09 ± 0.036,0.751 ± 0.087,0.939 ± 0.11
SAGGSAGGSAGGGLASEPVEIVEILSVTLVPEANVEVVTVKLPNPGELVTVPASAVPPGLSAGGSAGGSAGG [r7_304_JUSTAS],2.07 ± 0.13,1.16 ± 0.048,1.69 ± 0.085
SAGGSAGGGVYLNGLLPGGVALLSAPTASGEYTLILISPDNRALIFSYPADTGTPRVAEIDLPTSAGGSAGG [r6_159_TrMRF],0.577 ± 0.062,1.87 ± 0.065,1.49 ± 0.11
SAGGSAGGSEEEVEIVDVEIEEKDGKLVIRAKIRNKETGELYEVTLVFDKETGELHLEVRKLPSAGGSAGGS [r12_14_TrROS_Hall],3.99 ± 0.097,3.78 ± 0.13,3.95 ± 0.15
SAGGSAGGSGFKIVKVDTETGYVYVEVPKSAEKELEKLPSVEKVEEKEDSVLYRLRIPPFAALSAGGSAGGS [r12_694_TrMRF],1.78 ± 0.069,1.95 ± 0.086,1.81 ± 0.19
